Results reported in patent publication US20170052184A1 (published 2017).
Positions count from the first letter of the chain named.

T1: HCV Core1-169 (hepatitis C virus (HCV-1), UniProt P26664 1-169)
T1 sequence: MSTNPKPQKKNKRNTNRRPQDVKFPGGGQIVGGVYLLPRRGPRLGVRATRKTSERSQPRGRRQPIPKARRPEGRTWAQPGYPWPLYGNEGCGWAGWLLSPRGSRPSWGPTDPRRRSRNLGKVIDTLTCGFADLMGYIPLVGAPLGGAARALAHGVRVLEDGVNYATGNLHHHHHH

B1: HCV 208A-352 (antibody, V domains shown)
VH: QGQMQQSGAELVKPGASVKLSCKTSGFTFSSSFISWLKQKPGQSLEWIAWIYAGTGNTNYNQKFTDKAQLTVDTSSSTAYMQFSSLTTEDSAIYYCAISGTGFTYWGQGTLVTVSA
VL: DVLMAQTPLSLPVTLGDQASISCRSSQSLVHSNGNTYLEWFLQKPGQSPKLLIYNVSNRFSGVPDRFSGSGSGTDFTLKISRVEAEDLGVYYCFQGSHVPLTFGSGTKLEIKR
B2: HCV 208B-1024 (antibody, V domains shown)
VH: EVQLVESGGDLVKPGGSLKLSCAASGFTFSNYGMSWVRQTPDKRLEWVATISSGGSYSYYPDSVKGRFTISRDNAKNILYLQMSSLKSEDTAMYYCASLYYGYGDYWGQGTAFTVSS
VL: B1 VL with A5T, T14S, L29I, F41Y, P45L, N55R, L101W, S105G
B3: HCV 208B-281 (antibody, V domains shown)
VH: B1 VH with M4L, F33Y, K40R, N57G, T104I
VL: B1 VL with A5T, T14S, S32N, N55K, L101F
B4: HCV 208A-638 (antibody, V domains shown)
VH: QGQLQQPGAEFVKPGASLKLSCRASGYTFTSYWIHWVKQRPGQGLEWIGEVDPSDSYINQNEKFRGKATLTVDKSSSTAYMQLGSLTSEDSAVYYCARHYYGVLDSWGQGTALTVSS
VL: QIVLTQSPTIMSASLGERVTMTCTASSSVSSSYLHWFQQKPGSSPKLWIYSTSNLASGVPPRFSGSGSGTSYSLSISSVEAEDVATYYCLQFHRSPWTFGGGAKLEIKR
B5: HCV 208A-877 (antibody, V domains shown)
VH: QLQQSGPELVKPGASVKISCKTSGYTFTENAMHWVKQSRGKSLEWIGGVNPNNGDTVYTQKFKGKATLTVAKSSSTAYMELRTMTCEESTVYYCASREPDFFDYWGQGSSVTVSS
VL: QIVLTQSPAIMSVSPGEKVSMTCSASSSVTYMHWYQQKSGTSPKRWIYDTSELASGVPARFSGSGSGTTYSLTISSMEAEDAATYYCQQWSNKPLTFGAGTKLELKR
B6: HCV 208B-560 (antibody, V domains shown)
VH: EVQLQQSGPELEKPGASVKISCKTSGYTFTEYAMHWVKQSHGMSLEWIGGINPSNGNAIYNQIFKDKATLTVDRSSSTAYMGLRSLTFGDSGVYFCVRRQLDFFDYWGQGASLTVSS
VL: DIVVTQSPASLAVSLGQRATISCRASQSVSTSRYSYLHWYQQKPGQPPKLLIKYASNLESGVPARFSGSGSGTDFTLNIHPVGEEDTATYYCQHSWEFPFTFGSGTKLEIKR
B7: HCV 208A-557 (antibody, V domains shown)
VH: B1 VH with F33Y, F83L
VL: B6 VL with V3A, V4L, L37M, K49E, E97D
B8: HCV 208A-830 (antibody, V domains shown)
VH: EVRLQQPGPEVEKPGASVKISCKTSGYTFTEYAIHWVKQSHGESLEWIGGINPSNGDPIYNQIFKDKATLTVDRSSNTAYMGLRSLTVGDSGVYFCVRRQLDYFDFWGQGASLTVSS
VL: B6 VL with V4L, A25S, T87P
B9: HCV 208A-605 (antibody, V domains shown)
VH: B6 VH with M34I
VL: B6 VL
B10: HCV 208A-222 (antibody, V domains shown)
VH: B6 VH with K19R, M43K, S54N, F103Y
VL: B6 VL
B11: HCV 208B-1096 (antibody, V domains shown)
VH: QVQLQQSGAGLAKPGASVKMSCKASGYTFTANKMHWAKQRPGQGLEWIGYIDPSSGYTEYNHKIQYKATLTADTSSSTAYMQLSTLTFEDSAVYYCTNFAYWGQGTLVTVSA
VL: DIVMTQTPLTLSVTIGQPASISCKSSQSLLFTNGKTYLNWFLQRPGQSPKRLIYLLSKLDSGVPDRFSGSGSGTDFTLKISRVEAEDLGVYYCLQSTYFPLTFGAGTKLELKR
B12: HCV 208B-395 (antibody, V domains shown)
VH: B11 VH with A37T, E59Q, Y66D, T85S
VL: DIVLTQSPATLSVTPGDRVSLSCRASQRIYNYLHWYQQKSHESPRLLIKYASQSISGIPSRFSGSGSGTDFILTINSVETEDFGMYFCQQSNSWPLTFGAGTKLELRR
B13: HCV 208B-547 (antibody, V domains shown)
VH: B11 VH with G10E, A31S, H62Q, Q65K, Y66D, T74K, T85S, F88S
VL: EVVLTQSPAITAASLGQKVTITCRASSSVSYMHWYRQKSGTSPQPWIYEISTLASGVPTRFRASGSGTSYSLTISSMEAEDAAIYYCQQWNYPLTFGAGTKLELKR
B14: HCV 208B-589 (antibody, V domains shown)
VH: B11 VH with Y66D, T85S
VL: B11 VL
B15: HCV 208B-612 (antibody, V domains shown)
VH: EVQLQQSGPELVKPGASVKMSCKASGYRFTSYVMHWVRQKPGQGLEWIGYIDPHNDDTKYSEKFRGKATLTSDKSSTTAYMELSSLTSEDSAVYYCVRYSYDRDYSPMDYWGQGTSVTVSS
VL: QIVLTQSPTLMSASPGEKVTMTCSASSTVTYIYWYQQKPGSSPRLWMYDTFNLVSGVPARFSGSRSGTSYFLTISSMEGEDAATYYCQQYSDSPYTFGGGTKLEIKR
B16: HCV 208B-672 (antibody, V domains shown)
VH: EVKLVESGGSLVQPGGSLKLSCAASGFNFNTYAMSWVRQTPEKRLEWVAYISNGGGNTYYVDTVKGRFTISRDNAKNTLYLRMSSLKSEDTAMYYCARHGLYWGYSMDYWGQGTSVTVSS
VL: DIQMTQSPSSLSASLGERVSLTCRASQDIGGSINWLQQEPDGTIKRLIYATSSLDSGVPKRFSGSRSGSDYSLTISSLESEDFVDYYCLQYASSPPTFGGGTKLEIKR
B17: HCV 208B-189 (antibody, V domains shown)
VH: QVHLQQSGAELAKPGASVQMSCKASGYTFTANKMHWARQRPRQGLEWIGYIDPASGYTEYNQKIKDRATLTADKSSSTAYMQLSSLTSEDSAVYYCTNFAYWGQGTLVTVST
VL: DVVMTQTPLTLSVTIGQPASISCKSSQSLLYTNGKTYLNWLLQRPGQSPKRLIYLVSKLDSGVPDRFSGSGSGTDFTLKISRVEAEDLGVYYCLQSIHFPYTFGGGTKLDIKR

Columns and labels:
[1] = biological target: T2, HCV Core 134-171-TT Peptide (hepatitis C virus (HCV-1 numbering) …); experiment: SPR, captured mAb, peptide analyte
T2 construct: also called ALRZ-9 peptide

HCV Core1-169 [2] = biological target: T1, HCV Core1-169; experiment: SPR sandwich, capture mAb C11-3
HCV Core1-169 [3] = biological target: T1, HCV Core1-169; experiment: SPR sandwich, capture mAb C11-9
HCV Core1-169 [4] = biological target: T1, HCV Core1-169; experiment: SPR sandwich, capture mAb C11-14
HCV Core1-169 [5] = biological target: T1, HCV Core1-169; experiment: SPR sandwich, capture mAb C11-7

| Binder | Kd [1] | koff [1] | kon [1] | expected percent binding (HCV Core1-169 [2]) | expected percent binding (HCV Core1-169 [3]) | expected percent binding (HCV Core1-169 [4]) | expected percent binding (HCV Core1-169 [5]) |
| --- | --- | --- | --- | --- | --- | --- | --- |
| B1 | 0.52 nM | 5.4e-05 s⁻¹ | 100000 M⁻¹ s⁻¹ | ≤ 1% | ≤ 1% | ≤ 1% | ≤ 1% |
| B2 | 15 nM | 0.014 s⁻¹ | 1e+06 M⁻¹ s⁻¹ | 10.9% | 7.1% | 12.2% | 14.3% |
| B3 | 96 nM | 0.00025 s⁻¹ | 2200 M⁻¹ s⁻¹ | ≤ 1% | ≤ 1% | ≤ 1% | ≤ 1% |
| B4 | 0.2 nM | 0.00053 s⁻¹ | 2.7e+06 M⁻¹ s⁻¹ | 14.1% | 9.2% | 13.3% | 16.9% |
| B5 | 2.2 nM | 0.0024 s⁻¹ | 1.1e+06 M⁻¹ s⁻¹ | 9.4% | 5.9% | 10.7% | 12.1% |
| B6 | 0.23 nM | 0.00026 s⁻¹ | 1.1e+06 M⁻¹ s⁻¹ | 10.6% | 8.3% | 12% | 15.5% |
| B7 | 0.091 nM | 0.00021 s⁻¹ | 2.4e+06 M⁻¹ s⁻¹ | 17.7% | 13.3% | 17.6% | 21.4% |
| B8 | 0.16 nM | 0.00054 s⁻¹ | 3.4e+06 M⁻¹ s⁻¹ | 11.9% | 7.9% | 11.7% | 14.7% |
| B9 | 0.43 nM | 0.00037 s⁻¹ | 870000 M⁻¹ s⁻¹ | 15.9% | 11.9% | 15.8% | 19.3% |
| B10 | 0.31 nM | 0.00035 s⁻¹ | 1.1e+06 M⁻¹ s⁻¹ | 15.6% | 10.7% | 15% | 18.8% |
| B11 | 0.46 nM | 0.0006 s⁻¹ | 1.3e+06 M⁻¹ s⁻¹ | 15.1% | 11.4% | 16.3% | 16.9% |
| B12 | 0.36 nM | 0.00047 s⁻¹ | 1.3e+06 M⁻¹ s⁻¹ | 7.6% | 5.2% | 7.8% | 9.4% |
| B13 | 3.2 nM | 0.0049 s⁻¹ | 1.6e+06 M⁻¹ s⁻¹ | 7.2% | 4.9% | 8.2% | 8.3% |
| B14 | 0.63 nM | 0.00061 s⁻¹ | 960000 M⁻¹ s⁻¹ | 9.4% | 6.7% | 9.9% | 11.7% |
| B15 | 0.35 nM | 6.5e-05 s⁻¹ | 180000 M⁻¹ s⁻¹ | 3.8% | ≤ 1% | 3.1% | 4.4% |
| B16 | 0.16 nM | 0.00034 s⁻¹ | 2.2e+06 M⁻¹ s⁻¹ | 2.6% | ≤ 1% | 2.7% | 2.8% |
| B17 | 0.17 nM | 0.00015 s⁻¹ | 880000 M⁻¹ s⁻¹ | 2.3% | ≤ 1% | 2.7% | 2.9% |
